Experimental findings from the NTF2 design screens of Basanta et al. (2020) are described below.

The nature of the data set: protease stability score; higher = more stable; yeast display proteolysis, trypsin and chymotrypsin.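 Note: log10 excess protease needed over predicted unfolded state with 0 meaning unfolded.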
In turn, “DEKIKQNIEEFLKAVQHGDEERMTQLVDPNAKIVVGNQRVHGMEEYARDIVRKVKEIRIKIDRMHISVQGNKAVITMVYVININGKPVTFRAVYIYEVHDGRVKRVKNNIPEEDQKKVDS” showed a protease stability score of 0.733.
As to “DEKIVQAMKRYMDARQKGDPEDFNNLVDPNVRLNVGDKRVHGRERISEQIQREQRKMRIEIKHVEFRDQGEKVQLRVKYVVEINGRPRHASQRMEASLDDGKIKSIEIRVDEEVKKIEKV”, the protease stability score is -0.088.
As for “DEKKAEDAARQMLEALRTGDPKRMVDHMDPNARALVGDTRYHGREEASKMVEHIRRRVDHVRVDNFRVRGNKLHLHAVFDSNGRRERVQIRADVHNGKIKVFEITSQ”, the figure is 0.342; as for “DEKKAEELAKKAFKYIENGDREEAQKMLKDNVEYHYANTTYHGKDAAKFVVDVVQKVGVEVKVQEQEVRGNTVRARFQYKNGDTEVETEVEVTYEGDRVKKAEVKLSEEVMKLVHQG”, 0.566; as for “DEKKAEELARTVFEMADKGDKDTLRKIGMPNGEYKYVDKRYEGEQLALILVEQIKKVGAQVKVKRMEVRGDKVQADFDYEYGDKTVRTTARLEYKGDKLLRAEVEVSEEVKKIMTQG”, -0.073.
“DEKKAEEMLRRVVKLFRNGDVETVRKMGKDDVEVKYLDETRHGPDAMKKMLEKMKKLGAEVEYKEVHVEGDKATVKVEANIDGTTVRFHVTYQVKDHRVENVKVEYSEKAKKAIKHG” registered a protease stability score of 0.754.
As for “DEKKAEEVATRVLEYIRDGNADDVKKLGKEGGQVQLGDTQLNGVDQLYKYVQDFHKQGIHVEYKEHEAKGDTVTFHTTARRGDAQIEFEVHYVVKGDVVERMEVRQDRKQVKEFKDS”, the figure is -0.084; as for “DEKKAKEAAHRLLEAMVTGDPRKLNENADEDVQVEYGDKSYTGREKLNEWAHEFQKRVDHVRIESIHQRGDTATVKVRVEHNGETDTFVLIVEAHNGRAKRIRQETR”, 1.11; as for “DEKKAKELAETMFKYIQNGDEEKAQKYVDDNVEYKYIDKEYEGKDVVKEVVDKIKKLGVEVKLKRAEVKGDRVTADFEYKHGDNTVRTTVEVQYEGDRVKKARVELTDEARKVIDKG”, 0.352.
In the case of “DEKKALEIAEKVARYVAEGNSDKAKELGKEGVEAKVGDTTVHGPDQLKEYVKKVKDQGNRYEYKETHKEGNTVQFKTEVEKGNAKVEFTAEYQVEGDKLVRAEVRFNKEQQKKFQKS” it was -0.214; in that of “DEKKALEVIDRALKYVKNGNKEQVQQMGAPDVEVQNGDARNKGVEEMKKFAERVKKAGNQFEYKEKTTKGNKVKTVVQVTVNGQTIEYEVEVVAEGGKVKHWVVKMDETFKKVVDKS”, 0.008; in that of “DEKKALTLAKKAFEVIKKGDKEKAKKLGKPDVKYEYLDKKYTGPEAMEHIVEYVQKLGMEVRVKRNEEKGGTVRVDFDYQRGDQQVRTTAEVEYEGDKLKRFRVEMSEEVKKHITQG”, 0.093.
In turn, “DEKKAQKLMKKAFKMIKDGNEDEVRKLGKPNVKYEYADQQYEGEDAVRVAVQIVKRVGAEDKTETQEVKGDTARAVFVYKKGDTEVQTTAEVIYKGDKMEEARVKLSDEVKKVVHQG” came in with a protease stability score of 0.124.
As for “DEKKATKVAKQIQDMMVKGDSDKVEKVGKPNVEFQVGDVKMKGPDELKKYYKKVKDVGNELHVKEAKVEGDTVEVHYDLRHGGTQATVTVRIELKDDKVDRAKVDVDEHYKKIVKKG”, the figure is -0.068; as for “DEKKDREAAQKAARAFVKGNKDKVKELGKEDVTAKFGDEEFRGVDQVTKAMEHWLKMGDQMQLREEKDEKNHVKVRTDQRVGGYEVTTEATYHAQGGRVDHAEDREPPEAQKLMQKG”, -0.258.
As for “DEKKEEQWVRDVKKHAETGNWHDFWRQADPNVRFQVGDTTLRGREEAVKVAEDMRRQVDHQRVEHVDAHNGKVTVDAVLDINGRQQKVEYVVEMHNGRIKRINFSYS”, the figure is -0.142; as for “DEKKERQRAKELVKAMQHGDESKLKELLDENARLNVGDHKFHGMEEAHKTMRELWTRVDHLTVKSVDVTNGKIDIVVVFRHNGKNDRQVLEADVHNGRVRQQQIKSE”, -0.14; as for “DEKKIKDLARRVMQYYVSGNTEEVEKLGKDDVQVHFGDQTYHGVEQVKKVVKEFKEYGVELQLKDIQYDGDRADAEVEVHAGGHTWKFTVTVQLDGGKVDNLTFHVSDEAKKAIEHG”, 0.982.
As for “DEKKIKDLLLKLIEMYVSGNKEEVKKVGKDDVELHAGNQTYHGYEQMAKMAEKLKRYGVKLQITDAKVEGDKLTAKVDFHYGGETQKLEFVVQADGGKVDRMKIELSEEVVKVARKG”, the figure is 0.377; as for “DEKKIKEYVHELNRAFQNGDEDRLNQMMDKNVRAQYGDKEYHGRENAKKVMKDFRDQFDHLEIHSVNVRGDRVDIEAEAHNNGRTEHWIITIRLHNGHMTSIVIRKS”, -0.319; as for “DEKKIYDLLKKMVEAYVSGNAEEVRKLLKDDGTLDVGDQQYHGVEQVTKAAEEFQKYGVELHLTDYRFDGDRVDVKAVAHLGGNTWEFTVTVQADGGKVDRLVFHVSEEAVKYIQKG”, 1.28.
For the sequence “DEKKIYEVLHKAVQMYVSGNDEEVRKLLKKDAEIEVADHKYRGVDEVVKVVDQFRKYGVELQIDDAKFDGNKVNAELTLHAGGETWKFTVTAEADGGKVDKVTFHVTEEVKKRIQKG”, the protease stability score was -0.045.
In the case of “DEKKKAEEQHKKLEHALREGDPDEAKKMMDPNVRAQVGETKFHGREQMAKFWMTFNKRADHVEFELRDLHIENGRIRIHAVVRADVNGQTVRINIRIILTKHGDQFVAVRIEQK” it was 0.499; in that of “DEKKLEELLRKLFEAAQKNNVDEMRKFLAPDVQYKYGDKRYEGEKVADTAVKVMREVGAEVRVKEEEVKGGEAEATFQYHKGDKTVETTARVRYEGDKVKEVEVKLSEEVKKILEQG”, 0.128; in that of “DEKKLEEVAKKVMDAMRKGDSETLVKLGKPDVTFKVADIEFKGQDQLRKYYKLDQDVGVELHLKEEKKEGNKFTMVYDARFGGTQDTVEVEVEVKDEKVDKARAKFTEEYAKHIQKG”, 0.586.
In the case of “DEKKLHELLLKMVQYYVSGHTEKVKEMGKDDVNLNAGDYTYHGVEQVATVADRMRQYGVKLEVKNRRQEGDRLEVEVEFHVGGQTVTVTFKVKADGGKVDEMRIDFSEEADKMARKG” it was -0.157.
“DEKKLKDKAETLVENFKTGNEEEFSRMADENATLVVGDKTLRGREDLQTFISEFKKTVDHVEVRHVTADNGRVTIDMVVDINGRRVRVHVVIKFKNGHIKDVRVDPRMKRAMDQ”: the protease stability score is 0.905.
As for “DEKKLKELAEELVKADRTGNPDMIKKLGKPDVEFHVANVTMHGSEQVYKYYEKVQRQGNEVHIKRQEVRGDHVEVHYTVKVGGTEVEVTMRLHAKDHKVDKAEAHFNKEYLDHVKKG”, the figure is 0.413.
In the case of “DEKKLLDLARVALEYLQRGNSDQFAKMLDEGGQMNVGDTQINGSDQVKKYVKKFKDQGVHVEYKEQEEKGDTVTVKTEAELGDAKVTFEVHYVAKGDRVERVEVRMNKEQITEFKKS” it was 0.272; in that of “DEKKLLEIAKEVADYVRNGNADQVAKLGKEGIQANFGDEQVNGPDQMREYVKKVKDLGLHAEYKEEKYEGDTVELHTQAHLGDVTADFTVTYIVKGDKLDKVEVRFNKEQMKKFKTS”, 0.007; in that of “DEKKLQELLKKAFEAALNGDEDKLRKLLAPNVKYKYGDTEREGEDAVRLVMQIVKHIGVEVKKQEEEVKGGRMRAVFRYDNGSQTVQTTAEVQYEGDKVKEVRVEITDEIKKVMQRG”, 1.17.
In the case of “DEKKQAEDFFDTWVEIVKSGDEEKAQQMADPNVRFQIGDKSWRGREDFKKFLKTQLKRADHIRFEVQRITVRPNHIEVQFRIVIDNNGQDSRDTLTFVIKVNGDRLRLVEMHEG” it was 1.43.
On to “DEKKQAKRLHETMDRILTQGNPHEAKHLFDKDARIDVGDKKVHGREQIAKSLAERVRQVDHIHNQVDHVEVDNGQLNMTVRFQQETNGKTHDYSAQHRVDIDGDKVKVVKVTHQ”, for which the protease stability score is -0.336.
In the case of “DEKKQQELAETFWKIFKTGDEEKLKQMMPQDVRARYGDKSVTGRDRIVTTIKKRVKRADHINVKHISVHNGKIHIDAVIVVDGRKQRDTINIKMRNGHIKNINVDPEKDKQNFS” it was -0.217.
Sequence “DEKKTKELLKEAMKALHNGNEEKVKKLGGPDVEVHAFNYRNRGPEAMVEMARLAQRVGTEFQYREERFEGNRVKTVVEVTVGGDTVRYEVQATVEGGEVKRWEAHVDEKFIEHVEKS” returned a protease stability score of 0.174.
In the case of “DEKKVEKVVREALKAMINGDKDKVRKLLKPDVQFHAGDVEMHGVDQVVKYYEKIKRQGVEMHIKEVKVTGNEAEVKYDLRADGTEATVKAKVVVENEKVDHVTAELTKTYDDLVKKS” it was -0.107; in that of “DEKKVEQAEQWIRNLQTGDPDKANDMFDPNAEITVGDHVVHGREEFKDRMEKDMRNMRIKFEDVHASVKNGRVTVSVDQVDTNNGKPKRYRYNLTIDLRNGKVTEIVNKEDK”, 0.066.
In the case of “DEKKVHEVLKKLRKALEQGNVDEMVKMGKPDVEFHFFDTKIEGLDQLHEYYKTMKDHGAELHVEETKVEGNKVEVVYVLKLGGTQVKVTAQIEIKDERVVRARAENTEEYKKRVKKG” it was 0.359; in that of “DEKKVKEIAKKAFEYAVKGNEEQLQKLVKPNVDYEYVDEKYEGEDVVKKMVRLLKKVGAEVKIKRYEVKGDTVKADFDYNKGDKTVRTTAEVVYNGDKITQARLELTDEVKKIMHQG”, 0.681.
In the case of “DEKKVKELIDQVVEAIQKGDVEHLLKLGKPDVTFTVGDVEIRGLEHLKKYYKQVKDDGAELHVKKVEVKGNTAQVHYDMKYGGTKATVTVNIEAKDHKVDRAEAKMDKDYLKYVRDG” it was 0.644.
With “DEKKVKELLVRAVQAYVNGNTEEVKKLLKEDVQLHAVNHTYHGVEQLLKVVKRMKEYGIKLQVTDHKVDGDKVDVKVQFHAAGETKEVTFRVQADGGKVDKVEVHVTEEVQKLAEKG”, the protease stability score was 1.05.
In the case of “DEKKVKELVDTLFDVMRKGDAERFRRYLKPDVRFEFGDITMQGPDQMEKYYRQDQKYGNEMHIKHKEVHGDRAKVTYDVEIKGTRATVEAEVHVRDEKVDEAKAEFDEDYKKYFTKG”, the protease stability score was -0.121.
As for “DEKKVKEMVTEAQKAIENNDSDTMAKFLKPDVEFHFGDVKLKGPEDVKKYYDKVRRVGMEAHVKEAEVKGDTAQVVYDVEVKGKRVTITARVQMKDERVDRAEVELDEDYAREVTEG”, the figure is -0.02; as for “DEKKVKKVADKVMRVAANGDNETARKLGKPDVTFEAGSNKMRGVEQVDKYYEKVKRQGNELHIKEVKVEGDRAKVKYDIKIGGTEMTVTAEVYIENDKVEKARIEMDEDYEKKVTKG”, -0.338; as for “DEKKVLEVIQKFAEAIKDGNAEQAKKLGKEGIQVHIGDETINGPDQVEKYVKKVKDLGNEVHYKEKEVKGDEVTVHTEVKMGDQTVHFEVHYRAKDDKVEQFHVKFDKDEARRFKTS”, -0.27.
“DEKKVQEVAKDALKVDLQGDVEKMKKLGKPDVTFQLGDQEVHGPDDLKKYYDKVKRLGEEIHVKKVKVEGDKMQAHYELRVAGKQATVTVEVTVKDEKVEEARAEMTEKYKKALEEG” displayed a protease stability score of -0.154.
As for “DEKKVREFMERLFKAAENGNKDELRKVLMPNVKYQYVDKEKEGEEVAKEVAKAVKKVGAEIKKQEERVKGDTVEAVFQYKQGDTTVQTTVQIKYEGDKAKEVRVKLSDEVKKIVHRG”, the figure is -0.079.
